{
  "source": "paper PMC10871162",
  "origin": "cited, not measured here",
  "key": {"[1]": {"biological_target": "RyR peptide (UniProt P21817)", "sequence (P21817 whole entry)": "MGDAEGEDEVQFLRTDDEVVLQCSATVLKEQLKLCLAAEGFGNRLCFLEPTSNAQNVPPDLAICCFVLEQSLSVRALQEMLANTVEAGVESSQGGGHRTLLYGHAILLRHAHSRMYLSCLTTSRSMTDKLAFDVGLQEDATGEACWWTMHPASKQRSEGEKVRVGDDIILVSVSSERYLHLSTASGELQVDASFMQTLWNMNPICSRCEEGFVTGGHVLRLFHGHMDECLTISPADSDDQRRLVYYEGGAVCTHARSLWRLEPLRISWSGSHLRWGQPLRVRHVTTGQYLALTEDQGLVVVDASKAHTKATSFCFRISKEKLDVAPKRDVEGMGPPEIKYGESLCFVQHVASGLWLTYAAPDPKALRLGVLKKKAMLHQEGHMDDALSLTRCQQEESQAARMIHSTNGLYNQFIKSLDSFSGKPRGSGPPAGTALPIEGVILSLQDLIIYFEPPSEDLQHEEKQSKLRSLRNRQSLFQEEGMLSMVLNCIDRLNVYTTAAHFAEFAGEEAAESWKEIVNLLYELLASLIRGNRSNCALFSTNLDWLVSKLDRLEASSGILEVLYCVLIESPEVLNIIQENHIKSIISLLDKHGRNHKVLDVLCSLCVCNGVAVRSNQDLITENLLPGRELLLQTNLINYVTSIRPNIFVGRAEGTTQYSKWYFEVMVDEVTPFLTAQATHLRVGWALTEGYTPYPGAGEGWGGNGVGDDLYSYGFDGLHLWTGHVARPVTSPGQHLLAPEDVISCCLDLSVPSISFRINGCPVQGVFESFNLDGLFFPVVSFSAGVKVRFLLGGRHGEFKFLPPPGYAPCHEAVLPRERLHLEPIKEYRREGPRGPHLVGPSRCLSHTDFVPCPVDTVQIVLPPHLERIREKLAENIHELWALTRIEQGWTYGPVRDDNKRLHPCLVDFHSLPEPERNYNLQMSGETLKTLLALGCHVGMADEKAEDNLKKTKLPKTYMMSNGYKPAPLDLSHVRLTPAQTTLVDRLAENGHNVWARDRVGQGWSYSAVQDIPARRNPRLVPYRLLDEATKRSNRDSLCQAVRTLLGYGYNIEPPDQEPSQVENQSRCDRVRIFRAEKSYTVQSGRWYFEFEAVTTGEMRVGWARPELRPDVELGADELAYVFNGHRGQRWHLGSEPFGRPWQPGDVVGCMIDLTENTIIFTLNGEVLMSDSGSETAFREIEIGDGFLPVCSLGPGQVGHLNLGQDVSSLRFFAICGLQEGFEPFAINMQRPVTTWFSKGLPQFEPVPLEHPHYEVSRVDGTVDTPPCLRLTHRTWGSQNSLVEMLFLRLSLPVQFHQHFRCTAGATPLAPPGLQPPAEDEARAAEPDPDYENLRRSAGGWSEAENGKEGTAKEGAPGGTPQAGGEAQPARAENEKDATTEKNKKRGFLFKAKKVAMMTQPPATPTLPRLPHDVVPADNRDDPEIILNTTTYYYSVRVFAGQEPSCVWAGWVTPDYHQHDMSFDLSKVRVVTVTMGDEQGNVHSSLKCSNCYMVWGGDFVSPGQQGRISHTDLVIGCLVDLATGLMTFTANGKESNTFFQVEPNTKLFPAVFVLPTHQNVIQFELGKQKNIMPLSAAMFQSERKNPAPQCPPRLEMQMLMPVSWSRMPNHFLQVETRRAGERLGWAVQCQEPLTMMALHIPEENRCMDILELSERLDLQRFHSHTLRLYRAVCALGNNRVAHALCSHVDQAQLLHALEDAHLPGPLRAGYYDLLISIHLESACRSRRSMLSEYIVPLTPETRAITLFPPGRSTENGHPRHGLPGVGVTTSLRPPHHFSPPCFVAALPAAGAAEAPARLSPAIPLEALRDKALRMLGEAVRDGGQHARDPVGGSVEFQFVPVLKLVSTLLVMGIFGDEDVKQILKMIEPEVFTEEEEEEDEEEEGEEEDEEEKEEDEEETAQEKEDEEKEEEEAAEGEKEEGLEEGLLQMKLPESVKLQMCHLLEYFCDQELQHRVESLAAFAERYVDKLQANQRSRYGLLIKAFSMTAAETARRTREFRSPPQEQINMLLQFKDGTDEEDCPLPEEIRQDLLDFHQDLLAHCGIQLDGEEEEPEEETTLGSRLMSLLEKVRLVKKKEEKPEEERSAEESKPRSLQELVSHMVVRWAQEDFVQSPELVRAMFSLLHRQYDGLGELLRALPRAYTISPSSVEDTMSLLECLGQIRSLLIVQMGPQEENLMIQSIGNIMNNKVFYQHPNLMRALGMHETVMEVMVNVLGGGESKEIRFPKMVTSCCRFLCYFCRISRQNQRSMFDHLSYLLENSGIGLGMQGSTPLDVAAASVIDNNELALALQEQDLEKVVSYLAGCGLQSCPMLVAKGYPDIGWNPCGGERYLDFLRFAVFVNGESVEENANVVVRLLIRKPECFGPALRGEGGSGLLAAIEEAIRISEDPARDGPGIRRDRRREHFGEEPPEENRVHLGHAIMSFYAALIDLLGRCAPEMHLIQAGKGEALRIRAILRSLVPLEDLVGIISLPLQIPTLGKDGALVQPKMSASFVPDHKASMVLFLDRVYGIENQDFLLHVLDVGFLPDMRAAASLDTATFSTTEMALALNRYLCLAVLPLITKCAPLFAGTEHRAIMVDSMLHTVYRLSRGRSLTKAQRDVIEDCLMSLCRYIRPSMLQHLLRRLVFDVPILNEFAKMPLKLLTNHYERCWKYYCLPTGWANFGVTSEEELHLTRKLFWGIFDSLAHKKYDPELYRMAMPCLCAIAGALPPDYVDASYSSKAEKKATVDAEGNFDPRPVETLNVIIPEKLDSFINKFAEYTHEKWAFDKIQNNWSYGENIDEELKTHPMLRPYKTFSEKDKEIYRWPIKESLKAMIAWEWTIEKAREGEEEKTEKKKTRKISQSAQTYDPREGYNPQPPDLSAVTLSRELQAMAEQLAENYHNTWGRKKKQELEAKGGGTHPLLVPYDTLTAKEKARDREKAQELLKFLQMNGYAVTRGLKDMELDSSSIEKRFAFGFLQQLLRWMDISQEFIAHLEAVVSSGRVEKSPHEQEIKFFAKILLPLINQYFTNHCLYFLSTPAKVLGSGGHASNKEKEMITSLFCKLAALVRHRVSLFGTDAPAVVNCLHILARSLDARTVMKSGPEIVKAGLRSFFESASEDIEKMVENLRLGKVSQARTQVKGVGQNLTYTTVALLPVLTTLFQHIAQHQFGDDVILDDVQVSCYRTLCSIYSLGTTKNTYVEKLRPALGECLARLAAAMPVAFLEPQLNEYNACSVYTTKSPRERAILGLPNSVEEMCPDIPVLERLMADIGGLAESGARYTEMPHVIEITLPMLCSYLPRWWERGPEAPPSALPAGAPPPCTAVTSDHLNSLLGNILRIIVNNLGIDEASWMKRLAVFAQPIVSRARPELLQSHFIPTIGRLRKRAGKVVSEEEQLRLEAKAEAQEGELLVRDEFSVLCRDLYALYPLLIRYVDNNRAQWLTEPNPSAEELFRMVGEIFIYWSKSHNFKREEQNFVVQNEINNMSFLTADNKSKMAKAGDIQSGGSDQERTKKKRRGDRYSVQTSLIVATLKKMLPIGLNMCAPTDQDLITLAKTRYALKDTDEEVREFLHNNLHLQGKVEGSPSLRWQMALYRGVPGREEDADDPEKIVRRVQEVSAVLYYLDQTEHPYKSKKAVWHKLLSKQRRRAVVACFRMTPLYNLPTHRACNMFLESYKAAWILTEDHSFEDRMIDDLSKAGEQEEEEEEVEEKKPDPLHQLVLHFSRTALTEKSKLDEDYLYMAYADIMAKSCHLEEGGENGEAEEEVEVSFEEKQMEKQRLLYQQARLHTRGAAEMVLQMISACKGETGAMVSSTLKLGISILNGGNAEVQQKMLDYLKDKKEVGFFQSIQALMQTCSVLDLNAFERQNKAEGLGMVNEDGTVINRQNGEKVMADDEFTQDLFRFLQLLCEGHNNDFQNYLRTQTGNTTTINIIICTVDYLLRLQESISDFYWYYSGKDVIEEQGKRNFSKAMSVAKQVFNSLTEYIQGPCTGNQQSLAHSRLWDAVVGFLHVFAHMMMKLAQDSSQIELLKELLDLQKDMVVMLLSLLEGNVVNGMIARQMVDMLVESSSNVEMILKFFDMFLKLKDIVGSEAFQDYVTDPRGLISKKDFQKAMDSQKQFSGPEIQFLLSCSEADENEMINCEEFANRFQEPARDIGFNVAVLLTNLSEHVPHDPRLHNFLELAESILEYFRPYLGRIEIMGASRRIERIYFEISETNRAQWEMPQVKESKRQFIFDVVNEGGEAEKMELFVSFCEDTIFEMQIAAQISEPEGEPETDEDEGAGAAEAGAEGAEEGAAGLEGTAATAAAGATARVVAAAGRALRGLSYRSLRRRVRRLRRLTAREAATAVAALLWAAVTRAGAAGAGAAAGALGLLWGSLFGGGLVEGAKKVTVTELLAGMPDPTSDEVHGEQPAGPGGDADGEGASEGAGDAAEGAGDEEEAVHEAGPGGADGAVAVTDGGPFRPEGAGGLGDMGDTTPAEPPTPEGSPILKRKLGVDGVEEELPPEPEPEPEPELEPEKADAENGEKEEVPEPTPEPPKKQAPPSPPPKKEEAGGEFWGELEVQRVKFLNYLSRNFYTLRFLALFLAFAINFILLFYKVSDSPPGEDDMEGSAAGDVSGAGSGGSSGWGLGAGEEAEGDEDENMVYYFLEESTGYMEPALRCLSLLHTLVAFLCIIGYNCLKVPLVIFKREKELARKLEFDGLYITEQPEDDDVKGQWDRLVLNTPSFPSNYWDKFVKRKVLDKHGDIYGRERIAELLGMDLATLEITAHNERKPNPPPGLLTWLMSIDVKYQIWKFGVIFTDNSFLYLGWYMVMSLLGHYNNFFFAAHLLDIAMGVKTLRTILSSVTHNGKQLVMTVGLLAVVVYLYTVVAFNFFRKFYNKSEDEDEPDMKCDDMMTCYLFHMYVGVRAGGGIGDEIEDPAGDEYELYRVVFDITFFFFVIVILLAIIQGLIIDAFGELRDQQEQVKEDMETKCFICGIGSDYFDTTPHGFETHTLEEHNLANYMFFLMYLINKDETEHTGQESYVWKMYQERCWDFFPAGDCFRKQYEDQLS"}, "[2]": {"biological_target": "RIIβ peptide (UniProt P31323)"}, "[3]": {"biological_target": "TRTK-12 (CapZ peptide) (Homo sapiens) (UniProt P52907)"}, "[4]": {"biological_target": "RyR peptide RyR peptide (Homo sapiens) (UniProt P21817)"}, "[5]": {"biological_target": "nonmuscle myosin IIA mysIIA peptide (Homo sapiens) (UniProt P35579)"}, "[6]": {"biological_target": "myosin IIA peptide (Homo sapiens) (UniProt P35579)"}, "[7]": {"biological_target": "TRTK-12 (CapZ peptide) (Homo sapiens) (UniProt P52907)", "remark": "listed apart in the source"}},
  "note": "Read-outs that look alike come from different tables or passages of the source.",
  "data": [
    {"substance": "S100A1 (from UniProt P23297)", "values": [
      {"measurement": "Kd", "setting": "[1]", "result": 8, "unit": "µM"},
      {"measurement": "Kd", "setting": "[2]", "result": 2, "unit": "µM"},
      {"measurement": "Kd", "setting": "[3]", "result": 23, "unit": "µM"},
      {"measurement": "Kd", "setting": "[4]", "result": 8, "unit": "µM"}
    ]},
    {"substance": "S100A4 (from UniProt P26447)", "values": [
      {"measurement": "Kd", "setting": "[5]", "result": "< 0.001", "unit": "µM"},
      {"measurement": "Kd", "setting": "[6]", "result": "< 0.001", "unit": "µM"}
    ]},
    {"substance": "S100B (from UniProt P04271)", "values": [
      {"measurement": "Kd", "setting": "[7]", "result": 2.9, "unit": "µM"}
    ]}
  ]
}
